{"source": "patent US7387779B2", "about": "“Anti-angiogenic proteins and fragments and methods of use thereof” (Beth Israel Deaconess Medical Center, priority 1998, dated 2008)", "molecules": {"B1": {"name": "Tum-1: residues 54 to 244 of Tumstatin, lacking the N-terminal 53 amino acids (SEQ ID NO:22) (protein)", "chain": "QRAHGQDLGTLGSCLQRFTTMPFLFCNVNDVCNFASRNDYSYWLSTPALMPMNMAPITGRALEPYISRCTVCEGPAIAIAVHSQTTDIPPCPHGWISLWKGFSFIMFTSAGSEGTGQALASPGSCLEEFRASPFLECHGRGTCNYYSNSYSFWLASLNPERMFRKPIPSTVKAGELEKIISRCQVCMKKRH", "modifications": "Tum-1 (Tumstatin N-53) (amino acids 54-244 of SEQ ID NO10)"}, "B2": {"name": "endostatin: tumor associated angiogenesis inhibitor used as comparator (protein, UniProt P39060 1572-1754, looked up)", "Endostatin": "HSHRDFQPVLHLVALNSPLSGGMRGIRGADFQCFQQARAVGLAGTFRAFLSSRLQDLYSIVRRADRAAVPIVNLKDELLFPSWEALFSGSEGPLKPGARIFSFDGKDVLRHPTWPQKSVWHGSDPNGRRLTESYCETWRTEAPSATGQASSLLGGRLLGQSAASCHHAYIVLCIENSFMTASK", "modifications": "Endostatin"}, "B3": {"name": "Tum-2: residues 1 to 132 of Tumstatin (SEQ ID NO:23) (protein)", "chain": "GLKGKRGDSGSPATWTTRGFVFTRHSQTTAIPSCPEGTVPLYSGFSFLFVQGNQRAHGQDLGTLGSCLQRFTTMPFLFCNVNDVCNFASRNDYSYWLSTPALMPMNMAPITGRALEPYISRCTVCEGPAIAI", "modifications": "Tum-2 (amino acids 1-132 of SEQ ID NO10)"}, "B4": {"name": "Tum-4: residues 181 to 244 of Tumstatin (SEQ ID NO:25) (protein)", "chain": "EFRASPFLECHGRGTCNYYSNSYSFWLASLNPERMFRKPIPSTVKAGELEKIISRCQVCMKKRH", "modifications": "Tum-4 (amino acids 181-244 of SEQ ID NO10)"}, "B5": {"name": "Can-1: N-terminal 114 amino acids of full-length Canstatin (protein, listed as Homo sapiens)", "chain": "VSIGYLLVKHSQTDQEPMCPVGMNKLWSGYSLLYFEGQEKAHNQDLGLAGSCLARFSTMPFLYCNPGDVCYYASRNDKSYWLSTTAPLPMMPVAEDEIKPYISRCSVCEAPAIA"}, "B6": {"name": "Tumstatin-44-131: residues 44 to 131 of full-length Tumstatin (SEQ ID NO:33) (protein)", "chain": "FSFLFVQGNQRAHGQDLGTLGSCLQRFTTMPFLFCNVNDVCNFASRNDYSYWLSTPALMPMNMAPITGRALEPYISRCTVCEGPAIAI", "modifications": "Tumstatin-45-132 (amino acids 45-132 of SEQ ID NO10)"}, "B7": {"name": "Canstatin: NC1 domain of the α2 chain of Type IV collagen (SEQ ID NO:6) (protein, listed as Homo sapiens)", "chain": "VSIGYLLVKHSQTDQEPMCPVGMNKLWSGYSLLYFEGQEKAHNQDLGLAGSCLARFSTMPFLYCNPGDVCYYASRNDKSYWLSTTAPLPMMPVAEDEIKPYISRCSVCEAPAIAIAVHSQDVSIPHCPAGWRSLWIGYSFLMHTAAGDEGGGQSLVSPGSCLEDFRATPFIECNGGRGTCHYYANKYSFWLTTIPEQSFQGSPSADTLKAGLIRTHISRCQVCMKNL"}, "B8": {"name": "Tumstatin: NC1 domain of the α3 chain of type IV collagen, residues 1-244 (SEQ ID NO:10) (protein, listed as Homo sapiens)", "chain": "GLKGKRGDSGSPATWTTRGFVFTRHSQTTAIPSCPEGTVPLYSGFSFLFVQGNQRAHGQDLGTLGSCLQRFTTMPFLFCNVNDVCNFASRNDYSYWLSTPALMPMNMAPITGRALEPYISRCTVCEGPAIAIAVHSQTTDIPPCPHGWISLWKGFSFIMFTSAGSEGTGQALASPGSCLEEFRASPFLECHGRGTCNYYSNSYSFWLASLNPERMFRKPIPSTVKAGELEKIISRCQVCMKKRH"}}, "test_system": "C-PAE cells", "test": "Endothelial cell proliferation, methylene blue staining", "format": "cell-based, bovine", "conditions": "for inhibition of endothelial cell proliferation by synthetic peptides: 10 μg/ml; for EC50: equimolar comparison, read-out: ED50, anti-proliferative effect; for inhibition of proliferation of C-PAE cells: 15 μg/ml; for Relative Cell No. (%) C-PAE: 15 μg/ml recombinant protein; for inhibition of endothelial cell proliferation, comparison with anti-αvβ3 antibody: increasing equimolar amounts; for reduction of the number of cells: 10% FBS, 5 ng/ml bFGF, 3 ng/ml VEGF, 48 hours, 5 μg/ml and higher", "description": "A methylene blue staining test was also done. 3,100 cells were added to each well and treated as above, and cells were then counted using the method of Oliver et al. (Oliver, M. H. et al., 1989, J. Cell. Science 92:513-18). All wells were washed one time with […] of 1×PBS and the cells were fixed by adding […] of 10% formalin in neutral-buffered saline (Sigma Chemical Co., St. Louis, Mo., USA) for 30 minutes at room temperature. After formalin removal cells were stained with a solution of 1% methylene blue (Sigma Chemical Co.) in 0.01 M borate buffer (pH 8.5) for 30 minutes at room temperature. After removal of staining solution, the wells were washed 5 times with […] of 0.01 M borate buffer (pH 8.5). Methylene blue was extracted from the cells with […] of 0.1N HCi/ethanol (1:1 mixture) for 1 hour at room temperature. The amount of methylene blue staining was measured on a microplate reader (BioRad, Hercules, Calif., USA) using light absorbance at 655 nm wavelength.\nIn the methylene-blue staining method, 7000 cells were plated into each well of a 96-well plate, and treated as described above. Cells were then counted using the method of Oliver et al. (1989, J. Cell. Sci. 92:513-8). After 48 hours of treatment, all wells were washed with 100 μl of PBS, and the cells fixed with 10% formalin in neutral-buffered saline (Sigma Chemical Co., St. Louis, Mo., USA). The cells were then stained with 1% methylene blue (Sigma) in 0.01M borate buffer, pH 8.5. Wells were washed with 0.01M borate buffer, and the methylene blue extracted from the cells with 0.1N HCl/ethanol, and the absorbance measured in a microplate reader (Bio-Rad, Hercules, Calif., USA) at 655 nm. Polymyxin B (Sigma) at a final concentration of 5 μg/ml was used to inactivate endotoxin (Liu, S. et al., 1997, Clin. Biochem. 30:455-63).\nProliferation of endothelial cells (C-PAE cells) and WM-164 melanoma cells was assayed by methylene blue staining, as described above in Examples 25 and 34. The results are shown in FIGS. 33A and 33B, which are a pair of graphs showing the effect of increasing concentration (x-axis) of Tumstatin, Tum-1, Tum-2, Tum-3 and Tum-4 on the relative number (y-axis) of C-PAE cells (FIG. 33A) and WM-164 cells (FIG. 33B). […] Tum-4, however, did have anti-proliferative activity in this cell line. […] Only Tum-4 inhibited WM-164 melanoma cells.\nFor the proliferation assay, Canstatin, Can-1 and Can-2 soluble proteins (0.1-20.0 μg/ml) were added to the growth medium of proliferating C-PAE cells, which were stimulated with 10% FBS in DMEM, in addition to 5 ng/ml bFGF and 3 ng/ml VEGF. The results are shown in FIG. 40, which is a graph showing the effect of increasing concentrations of Canstatin (♦), Can-1 (▪) and Can-2 (▴) (x-axis) on the relative cell number (y-axis) of C-PAE cells. Each concentration of each protein was tested in quadruplicate. Bovine serum albumin (BSA) was used as a control treatment. Polymyxin B was used to control for endotoxin interference, and no differences were found between assays run with and without polymyxin B added to the medium. Cells were allowed to proliferate for 48 hours, and were then fixed, stained and the density read with a Bio-Rad plate reader (Bio-Rad, Hercules, Calif., USA). Canstatin and Can-1 both caused dose-dependent decreases in the percent cell number, and both reduced the number of cells by 80% at concentrations of 5 μg/ml and higher.\nAn endothelial cell proliferation assay was used to compare the activity of Tumstatin and some of the deletion mutants. Recombinant Tumstatin (28 kDa), Tumstatin-44-131 (12 kDa) and T3 peptide were used in a methylene blue proliferation assay in equimolar concentrations."}
{"molecule": "GLKGKRGDSGSPATWTTRGF [T1]", "values": [{"measurement": "inhibition of endothelial cell proliferation by synthetic peptides", "setting": "20% FCS", "result": "did not inhibit endothelial cell proliferation"}]}
{"molecule": "LQRFTTMPFLFCNVNDVCNF [T3]", "values": [{"measurement": "inhibition of endothelial cell proliferation by synthetic peptides", "setting": "20% FCS", "result": "significantly (p<0.05) inhibit"}, {"measurement": "EC50", "result": 2500, "unit": "nM"}, {"measurement": "fold less active than Tumstatin and Tumstatin-44-131", "setting": "equimolar concentrations / molar basis", "result": 2.5, "unit": "fold"}]}
{"molecule": "B1", "values": [{"measurement": "inhibition of proliferation of C-PAE cells", "result": 65.6, "unit": "%"}, {"measurement": "Relative Cell No. (%) C-PAE", "setting": "20% FCS", "result": "20.5 ± 3.4", "unit": "%"}]}
{"molecule": "B2", "values": [{"measurement": "inhibition of endothelial cell proliferation, comparison with anti-αvβ3 antibody", "result": "dose-dependent inhibition"}]}
{"molecule": "B3", "values": [{"measurement": "inhibition of proliferation of C-PAE cells", "result": 73.3, "unit": "%"}, {"measurement": "Relative Cell No. (%) C-PAE", "setting": "20% FCS", "result": "34.3 ± 3.9", "unit": "%"}]}
{"molecule": "B4", "values": [{"measurement": "inhibition of proliferation of C-PAE cells", "result": "did not inhibit"}, {"measurement": "Relative Cell No. (%) C-PAE", "setting": "20% FCS", "result": "95.7 ± 3.6", "unit": "%"}]}
{"molecule": "B5", "values": [{"measurement": "reduction of the number of cells", "result": 80, "unit": "%"}]}
{"molecule": "B6", "values": [{"measurement": "ED50, inhibition of proliferation", "setting": "Pichia-expressed, 20% FCS", "result": 5, "unit": "µg/mL"}, {"measurement": "EC50", "result": 1000, "unit": "nM"}]}
{"molecule": "B7", "values": [{"measurement": "reduction of the number of cells", "result": 80, "unit": "%"}, {"measurement": "treatment level at which dye uptake dropped off to the level seen in unstimulated cells", "setting": "10% FCS", "result": "0.625 to 1.25", "unit": "µg/mL"}]}
{"molecule": "B8", "values": [{"measurement": "inhibition of proliferation of C-PAE cells", "result": 78.5, "unit": "%"}, {"measurement": "Relative Cell No. (%) C-PAE", "setting": "20% FCS", "result": "100.0 ± 3.2", "unit": "%"}, {"measurement": "EC50", "result": 1000, "unit": "nM"}, {"measurement": "inhibition of endothelial cell proliferation, comparison with anti-αvβ3 antibody", "result": "dose-dependent inhibition"}]}
